This note sets out measurements from patent publication US20190016816A1 (APTEVO RESEARCH AND DEVELOPMENT, published 2019).

For one assay, the target named is T1, cynomolgus 5T4 on cells (cynomolgus macaque, UniProt Q4R8Y9 35-420).
T1 construct: whole, on cells; also called CHO-K1/cynomolgus 5T4 transfectants
T1 sequence (looked up): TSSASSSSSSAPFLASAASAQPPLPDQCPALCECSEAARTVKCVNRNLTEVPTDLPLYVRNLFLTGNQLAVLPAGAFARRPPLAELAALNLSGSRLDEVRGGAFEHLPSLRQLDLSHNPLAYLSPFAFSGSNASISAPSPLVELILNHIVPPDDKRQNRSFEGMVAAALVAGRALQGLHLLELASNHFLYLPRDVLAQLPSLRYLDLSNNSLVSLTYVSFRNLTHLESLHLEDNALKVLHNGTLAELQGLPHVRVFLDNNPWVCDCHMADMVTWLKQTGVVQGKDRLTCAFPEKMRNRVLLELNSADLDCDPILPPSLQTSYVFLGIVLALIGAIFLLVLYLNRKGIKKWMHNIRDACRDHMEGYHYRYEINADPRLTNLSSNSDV
Put plainly: flow cytometry, CHO-K1 cells expressing cynomolgus 5T4, labelled anti-human IgG secondary, MFI (median). The method, then: Binding studies were performed by standard flow cytometry-based staining procedures two cell lines expressing 5T4:CHO-K1 cells (obtained from Alligator) transduced with human or cynomolgus macaque 5T4 and SKOV-3 human ovarian adenocarcinoma cells which express (human) 5T4. All labeling and washes were performed in U-bottom 96-well plates in saline buffer with 0.1% BSA and 2 mM EDTA. Cell were plated at approximately 100,000 cells per well and incubated with a range of 100 nM to 0.05 nM concentrations of test molecules in […], for 30 minutes on ice. Cells were washed three times then incubated for another 30 min on ice with fluorescently-labeled secondary polyclonal antibody, F(ab′)² goat anti-human IgG (Jackson ImmunoResearch Laboratories). The cells were then washed twice and the samples acquired in a BD LSRII or a Symphony A3 flow cytometer. The sample files were analyzed using FlowJo software; the mean fluorescence intensity (MFI-mean) or median fluorescence intensity (MFI-median) of the live population of cells in each well was calculated after gating on live cells (forward vs side scatter). Nonlinear regression analysis to determine EC₅₀ values was performed in GraphPad Prism 6® graphing and statistics software.
A general note: In flow cytometry, cells or beads pass a laser one at a time.

In assay [1] the target is T2, cynomolgus CD137 on cells (cynomolgus macaque, UniProt A9YYE7 24-254).
T2 construct: whole, on cells; also called CHO-K1/cynomolgus CD137 cell line; cynomolgus monkey CD137 on CD3-stimulated primary CD8 T cells
T2 sequence (A9YYE7 entry or part of it): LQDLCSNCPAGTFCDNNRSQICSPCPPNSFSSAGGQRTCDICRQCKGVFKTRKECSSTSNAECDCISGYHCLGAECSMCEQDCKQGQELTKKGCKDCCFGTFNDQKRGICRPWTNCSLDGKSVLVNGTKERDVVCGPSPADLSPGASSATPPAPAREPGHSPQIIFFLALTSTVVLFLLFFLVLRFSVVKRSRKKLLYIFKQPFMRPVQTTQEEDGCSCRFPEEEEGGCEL
In words: flow cytometry, normalized percentage of CD8 T cells (gated from CD3-stimulated cynomolgus PBMC) bound by the biotinylated antibody, pooled data of 2 exp, n=6 donors. The method, then:
(§1) Following 48 h of incubation with or without CD3, human and cynomolgus PBMC were harvested, pooled, recounted and diluted in FACS buffer (PBS+0.5% BSA, 0.05% NaN₃) to a concentration of 5×10⁶ cells/mL. 50 μL (0.25×10⁶ cells) of cell solution was added to a 96-well FACS staining plate (Falcon #351190). Following 10 min of Fc-blocking in RT using Beriglobin (hIgG, 200 μg/mL), cells were washed in FACS buffer and then incubated for 1 h in 4° C. with 100 μL of the biotinylated ALG.APV-210 or negative control. The antibodies were added in a serial dilution starting either at 5 μg/mL titrating down in a 12 step ⅓ dilution down to 0.0003 μg/mL (exp 1) or 1 μg/mL titrating down in a 12 step ½ dilution down to 0.0005 μg/mL (exp 2). […] Cells were analysed for ALG.APV-210 binding using flow cytometry by gating on viable, single cells expressing CD3 and CD8. MFI values (FMO subtracted) from 2 independent experiments as well as normalized pooled data from 2 experiments and EC₅₀-values were determined and plotted using GraphPad Prism 7, non-linear regression log (agonist) vs. normalized response—variable slope, n=6 donors/group.

In assay [2] the target is T2, cynomolgus CD137 on cells. In words: flow cytometry, CD8 T cells gated from CD3-stimulated cynomolgus PBMC, biotinylated antibody + streptavidin-APC, exp 2, n=3 donors. Here is the method: as §1, with “control.” for “control. The antibodies were added in a serial dilution starting either at 5 μg/mL titrating down in a 12 step ⅓ dilution down to 0.0003 μg/mL (exp 1) or 1 μg/mL titrating down in a 12 step ½ dilution down to 0.0005 μg/mL (exp 2).”
In ELISA tests, the binding of biotinylated ALG.APV-210 to CD137 was similar to that of the non-biotinylated ALG.APV-210 (0.6 nM vs. 0.7 nM). The binding (EC₅₀) of the biotinylated ALG.APV-210 to its immunomodulatory target CD137 when expressed on activated primary human and cynomolgus CD8 T cells from CD3 stimulated PBMC was assessed and compared between the two species as well as to unstimulated cells. […]

Assay [3] concerns the target T2, cynomolgus CD137 on cells. Put plainly: flow cytometry, MFI of the CD137 positive cells; cynomolgus CD8 T cells, MFI of CD137 positive cells. Here is the method: as §1, with “control.” for “control. The antibodies were added in a serial dilution starting either at 5 μg/mL titrating down in a 12 step ⅓ dilution down to 0.0003 μg/mL (exp 1) or 1 μg/mL titrating down in a 12 step ½ dilution down to 0.0005 μg/mL (exp 2).”
ALG.APV-210 binding was also assessed by looking at the percentage of CD8 T cells bound by ALG.APV-210. […] The binding EC₅₀ values were also calculated on the MFI of the CD137 positive cells, and the results was an EC₅₀ of 0.17 nM for binding to human CD137 and 0.20 nM for cynomolgus monkey CD137.

Assay [4] deals with T2, cynomolgus CD137 on cells. Put plainly: flow cytometry, percentage of CD8 T cells (gated from CD3-stimulated cynomolgus PBMC) bound by the biotinylated antibody, exp 1, n=3 donors. Here is the method:
as §1

B1: ALG.APV-187 (bispecific antibody)
chain: EVQLLESGGGLVQPGGSLRLSCAASGFTFSHGSMYWVRQAPGKGLEWVSSISSGSGSTYYADSVKGRFTISHDNSKNTLYLQMNSLRAEDTAVYYCARSSYYGSYYSIDYWGQGTLVTVSSGGGGSGGGGSGGGGSGGGGSDIQMTQSPSSLSASVGDRVTITCRASQSISSYLNWYQQKPGKAPKLLIYAASSLQSGVPSRFSGSGSGTDFTLTISSLQPEDFATYYCQQYYDNLPTFGQGTKLEIKSSEPKSSDKTHTCPPCPAPEAAGAPSVFLFPPKPKDTLMISRTPEVTCVVVDVSHEDPEVKFNWYVDGVEVHNAKTKPREEQYNSTYRVVSVLTVLHQDWLNGKEYKCAVSNKALPAPIEKTISKAKGQPREPQVYTLPPSRDELTKNQVSLTCLVKGFYPSDIAVEWESNGQPENNYKTTPPVLDSDGSFFLYSKLTVDKSRWQQGNVFSCSVMHEALHNHYTQKSLSLSPGSGGGGSGGGGSGGGGSPSEVQLLESGGGLVQPGGSLRLSCAASGFTFSSYAMSWVRQAPGKCLEWVSAISGSGGSTYYADSVKGRFTISRDNSKNTLYLQMNSLRAEDTAVYYCARYYGGYYSAWMDYWGQGTLVTVSSGGGGSGGGGSGGGGSGGGGSDIQMTQSPSSLSASVGDRVTITCRASQSISSFLNWYQQKPGKAPKLLIYAASSLQSGVPSRFSGSGSGTDFTLTISSLQPEDSATYYCQQTYGYLHTFGCGTKLEIKR
notes: Optimized ADAPTIR scFv-Fc-scFv homodimer with stabilizing disulfide in the 1210 scFv
With B1, in the assay with cynomolgus 5T4 on cells, a half-maximal response (EC50) required 21 nM and the “Maximum MFI” value came out at 25400.

B2: biotinylated ALG.APV-210 (bispecific antibody)
chain: EVQLLESGGGLVQPGGSLRLSCAASGFTFSHGSMYWVRQAPGKGLEWVSSISSGSGSTYYADSVKGRFTISHDNSKNTLYLQMNSLRAEDTAVYYCARSSYYGSYYSIDYWGQGTLVTVSSGGGGSGGGGSGGGGSGGGGSDIQMTQSPSSLSASVGDRVTITCRASQSISSYLNWYQQKPGKAPKLLIYAASSLQSGVPSRFSGSGSGTDFTLTISSLQPEDFATYYCQQYYDNLPTFGQGTKLEIKEPKSSDKTHTCPPCPAPEAAGAPSVFLFPPKPKDTLMISRTPEVTCVVVDVSHEDPEVKFNWYVDGVEVHNAKTKPREEQYNSTYRVVSVLTVLHQDWLNGKEYKCAVSNKALPAPIEKTISKAKGQPREPQVYTLPPSRDELTKNQVSLTCLVKGFYPSDIAVEWESNGQPENNYKTTPPVLDSDGSFFLYSKLTVDKSRWQQGNVFSCSVMHEALHNHYTQKSLSLSPGSGGGGSGGGGSGGGGSPSEVQLLESGGGLVQPGGSLRLSCAASGFTFSSYAMSWVRQAPGKCLEWVSAISGSGGSTYYADSVKGRFTISRDNSKNTLYLQMNSLRAEDTAVYYCARYYGGYYSAWMDYWGQGTLVTVSSGGGGSGGGGSGGGGSGGGGSDIQMTQSPSSLSASVGDRVTITCRASQSISSFLNWYQQKPGKAPKLLIYAASSLQSGVPSRFSGSGSGTDFTLTISSLQPEDSATYYCQQTYGYLHTFGCGTKLEIKR
notes: also called ALG.APV-210 (biotinylated for FACS detection)
For the molecule B2, the EC50 – broadly, the concentration that produces a half-maximal response – in assay [1] came to 0.019 nM; in assay [3] it was 0.2 nM. In addition, the EC50 (read off the curve) (as a rule, the midpoint of the concentration-response curve) in assay [2] was around 0.2 nM; in assay [4] it was around 0.02 nM.
